The results in this text go back to patent US20200299408A1 (Genentech, published 2020).

Experiment [1] deals with T1, single chain human CD3ε-26mer-CD3γ (CD3εγ) (human).
T1 construct: also called human CD3εγ
T1 chain: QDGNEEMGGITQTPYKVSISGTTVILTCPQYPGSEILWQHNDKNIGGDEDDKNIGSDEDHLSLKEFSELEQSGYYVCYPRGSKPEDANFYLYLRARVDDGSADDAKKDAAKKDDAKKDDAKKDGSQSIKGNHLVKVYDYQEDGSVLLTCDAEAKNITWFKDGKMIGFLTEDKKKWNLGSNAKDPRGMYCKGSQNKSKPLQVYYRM
As to the kind of experiment: SPR (Biacore 4000): CD3εγ (row WT) captured from the periplasmic fraction on UCHT1v9; analyte a bispecific antibody with one 38E4v1 arm and one irrelevant arm, 0.39-100 nM. As to the method:
The secreted CD3εγ variants were captured from the crude periplasmic fraction using anti-CD3 antibody UCHT1v9. UCHT1v9 was immobilized on a CM5 serios S chip through amine coupling using the anti-human IgG (Fc) antibody capture kit (BR-1008-39) from GE Healthcare. SPR measurements were performed on the Biacore 4000 instrument, utilizing kinetic evaluation software. In order to measure monovalent binding affinities, anti-CD3 bispecific antibodies were used in which one arm was the anti-CD3 to be tested and the arm recognized an irrelevant antigen. The bispecific anti-CD3 antibodies were passed over the captured supernatant in a concentration series of two-fold dilutions from 0.39 to 100 nM. The resulting kinetics (FIG. 13D) were measured and calculated using Biacore 4000 BIAevaluation software (product code 28-9664-57).
In general terms: Surface plasmon resonance follows binding to a sensor surface in real time, without labels.

The target of experiment [2] is T1, single chain human CD3ε-26mer-CD3γ …. The experiment can be described thus: Biacore, human CD3εγ on chip, antibody in flow-through.
Another experiment has as its target T2, cyCD3εγ (cynomolgus monkey).
T2 chain 1: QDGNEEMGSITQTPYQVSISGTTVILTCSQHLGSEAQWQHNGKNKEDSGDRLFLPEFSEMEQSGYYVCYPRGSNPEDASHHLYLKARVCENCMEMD
T2 chain 2: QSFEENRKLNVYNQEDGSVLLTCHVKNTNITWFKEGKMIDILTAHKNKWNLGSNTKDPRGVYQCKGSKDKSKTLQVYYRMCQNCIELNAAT
As to the kind of experiment: monovalent binding affinity, method not stated on the sheet.

For experiment [3], the target named is T1, single chain human CD3ε-26mer-CD3γ …. The experiment can be described thus: Biacore single cycle kinetics; reference of the ratio column. The text has this:
In addition, position 95 in HVR-H3 was also mutated to serine, threonine, or glutamate. Variants with these single point mutations were expressed as Fabs in HEK293 cells and initially screened with a single cycle kinetics method on a Biacore T100. Selected variants were also scaled up and purified for a conventional multi-cycle kinetics method. For single cycle kinetics, Biacore Series S CM5 sensor chips were immobilized with anti-human Fab antibodies (Human Fab capture kit, GE Healthcare). […] For conventional multi-cycle kinetics, human CD3εγ, cyno CD3εγ, or a 27-mer peptide were immobilized on Biacore Series S CM5 sensor chip using the amine coupling kit from Biacore. Serial 3-fold dilutions of each Fab variant were injected at a flow rate of 30 μl/min. Each sample was analyzed with a protocol of 3-minute association and 3-minute dissociation. In both methods, the Biacore chips were regenerated using 10 mM Glycine (pH 1.7). Binding response was corrected by blank subtraction and a 1:1Languir model of simultaneous fitting of kₒₙ and koff was used for kinetics analysis.

B1: hu38E4.v1 Fab (Fab, V domains shown)
VH: EVQLVQSGAEVKKPGASVKVSCKASGFTFTSYYIHWVRQAPGQGLEWIGWIYPENDNTKYNEKFKDRVTITADTSTSTAYLELSSLRSEDTAVYYCARDGYSRYYFDYWGQGTLVTVSS
VL: DIVMTQSPDSLAVSLGERATINCKSSQSLLNSRTRKNYLAWYQQKPGQSPKLLIYWTSTRKSGVPDRFSGSGSGTDFTLTISSLQAEDVAVYYCKQSFILRTFGQGTKVEIK
notes: Humanized anti-CD3 Fab; Point mutants of it were expressed as Fabs in HEK293 cells
What is called Kd is the constant that tells how readily two partners part at equilibrium. High values mean a looser complex, low ones a tighter complex. Broadly, the koff is the first-order rate constant of dissociation. High values mean fast dissociation, low ones slow dissociation. As usually defined, the kon is the rate constant with which the complex forms. The molecule B1 showed a Kd in experiment [1] of 3 nM. For the same molecule, in experiment [2], binding was characterised by a dissociation constant (Kd) of 0.8 nM, the koff turned out to be 0.0051 s⁻¹ and the on-rate constant (kon) stood at 6.06e+06 M⁻¹ s⁻¹. Also, in the experiment with cyCD3εγ, binding was put at a Kd of 0.7 nM. Moreover, the “ratio (fold)” value in experiment [3] was 1 fold.
